Paper doi:10.1101/2023.06.05.543797, “Crystal structure of SUN1-KASH6 reveals an asymmetric LINC complex architecture compatible with nuclear membrane insertion” (bioRxiv, 2023)

Molecular target: the molecule itself
Assay: crystal structure; co-expressed and co-purified SUN1-KASH6 complex at 12 mg/ml; sitting drops, 20°C; crystals at pH 6.0 (1.7 Å) and pH 5.5 (2.0 Å and 2.3 Å)

B1: KASH domain of human JAW1/LRMP (amino-acids 515-555) (peptide, UniProt Q12912 515-555, looked up)
chain: TGQLFQKSVDAAPTQQEDSWTSLEHILWPFTRLRHNGPPPV
notes: JAW1/LRMP (lymphoid restricted membrane protein), human, KASH domain, amino-acids 515-555; also called KASH6; KASH6 peptide; not shown: His6, N-terminal, cleaved; MBP, N-terminal, cleaved
**Q.** Does B1 bind?
**A.** Result: binds
